# From patent publication US7189694B2, “Inhibitors of autophosphorylation protein kinases” (University of Florida Research Foundation, Inc., priority 2003, dated 2007)
# Entries after “also recorded” stand apart in the source; their conditions may differ.
# Assays:
# EGFR = target: T1, EGFR (Homo sapiens, UniProt P00533); assay: In vitro EGFR autophosphorylation kinase assay; format: biochemical; conditions: peptide at 50 μM; FIG. 2E
# T1 construct: human EGFR isolated from A431 cells; purchased Upstate Biotechnology, Lake Placid, N.Y; host or cells: A431 cells (endogenous receptor, isolated)
# Experimental: (§1) In vitro Kinase Assays: Autophosphorylation activity of EGFR and VEGFR-1 was measured in a reaction mixture containing kinase buffer (20 mM Tris-HCl [pH 7.5], 2 mM dithioreitol, 50 mM potassium chloride, 0.3 mM sodium orthovanadate, 5 mM magnesium chloride, 10 mM glycerophosphate, 2 mM EGTA, […] manganese chloride), Tkip, substrates, and 5 μCi of [^32P]γ-ATP (specific activity 6000 Ci/mmol; 1 mCi=37 Mbq) (Amersham Biosciences, Piscataway, N.J.). EGFR and VEGFR in vitro kinase assays were carried out in 22.5 μL reaction volumes containing 10 μL Tkip, 2.5 μL substrates, and 10 μL [^32P]γ-ATP incubated at 30° C. for 10 min. EGFR (supplied precomplexed with EGF) was obtained from Upstate Biotechnology (Lake Placid, N.Y.). VEGFR and VEGF were obtained from Calbiochem (San Diego, Calif.) and Peprotech (Rocky Hill, N.J.), respectively.
# (§2) Determination of JAK2 autophosphorylation activity was performed in reaction mixtures containing recombinant human JAK2 immobilized on agarose beads (Upstate Biotechnology, Lake Placid, N.Y.), 1 μCi/μl of [^32P]γ-ATP (Amersham Biosciences, Piscataway, N.J.), and either Tkip or JAK 2 WT peptide incubated in kinase buffer (10 mM HEPES [pH 7.4], 50 mM sodium chloride, 0.1 mM sodium orthovanadate, 5 mM magnesium chloride, 5 mM manganese chloride). […]
# JAK2/IFNGR-1 = target: T2, JAK2/IFNGR-1 (Homo sapiens, UniProt O60674); assay: JAK2 kinase assay processed on P81 phosphocellulose discs (32P incorporation); format: biochemical; conditions: peptide at 50 μM; FIG. 2D
# T2 construct: purchased Upstate Biotechnology, Lake Placid, N.Y
# Experimental: (§3) Src kinase activity was performed with a Src substrate peptide (KVEKIGEGTYGVVYK) (SEQ ID NO. 73) using a Src kinase assay kit according to the manufacturer's specifications (Upstate Biotechnology, Lake Placid, N.Y.) according to the manufacturer's specifications. Briefly, Src substrate peptide was incubated in Src kinase buffer (100 mM Tris-HCl [pH 7.2], 125 mM MgCl2, 25 mM MnCl2, 2 mM EGTA, 0.02 mM Na3VO4, and 2 mM dithioreitol), 5 μCi of [^32P]γ-ATP (75 mM MnCl2, 500 μM ATP), recombinant human Src (Upstate Biotechnology, Lake Placid, N.Y.), and Tkip, JAK2 WT peptide, or in the absence of peptide for 10 min at 30° C. Reaction mixtures were spotted on P81 phosphocellulose discs (supplied with kit) to bind phosphorylated Src substrate peptide, washed three times for 5 min with 0.75% phosphoric acid, washed twice with acetone for 1 min, and placed in vials to which 4 ml of ScintiVerse® (Fisher, Pittsburgh, Pa.) was added. The phosphocellulose discs were analyzed using a liquid scintillation counter to measure ^32P-labeled proteins. For comparison with Src, JAK2 was also assayed using the same procedure. The assay was setup as described above for the Src kinase assay. However, reactions were incubated in the presence of 2 mM dithioreitol in the buffer to release JAK2 from the agarose beads. Following the appropriate incubation period reactions were gently centrifuged. […]
# c-src = target: T3, c-src (Homo sapiens, UniProt P12931); assay: Src kinase assay with substrate peptide (P81 discs); format: biochemical; conditions: peptide at 50 μM; FIG. 2C
# T3 construct: purchased Upstate Biotechnology, Lake Placid, N.Y
# Experimental: as §3
# recombinant human JAK2 = target: T4, recombinant human JAK2 (Homo sapiens, UniProt O60674); assay: In vitro JAK2 kinase assay (32P, SDS-PAGE, autoradiography); format: biochemical; conditions: peptide at 50 μM
# T4 construct: purchased Upstate Biotechnology, Lake Placid, N.Y
# Experimental: Determination of JAK2 autophosphorylation activity was performed in reaction mixtures containing recombinant human JAK2 immobilized on agarose beads (Upstate Biotechnology, Lake Placid, N.Y.), 1 μCi/μl of [^32P]γ-ATP (Amersham Biosciences, Piscataway, N.J.), and either Tkip or JAK 2 WT peptide incubated in kinase buffer (10 mM HEPES [pH 7.4], 50 mM sodium chloride, 0.1 mM sodium orthovanadate, 5 mM magnesium chloride, 5 mM manganese chloride). JAK2 kinase assays were performed in 35 μL reaction volumes containing 10.5 μL Tkip, 20 μL JAK2 agarose beads, 1 μL sIFNGR-1, and 3.5 μL [^32P]γ-ATP incubated at 30° C. for 30 min with intermittent agitation. […] EGFR, VEGFR, and JAK2 kinase reactions were terminated with the addition of 5 μl 6×SDS sample buffer (0.5 M Tris-HCl [pH 6.8], 36% glycerol, 10% SDS, 9.3% DTT, 0.012% bromophenol blue). Incubation of JAK2 agarose beads in SDS sample buffer (100° C.) was designed to elute bound proteins from the agarose beads. The reaction mixtures were separated on a 10% SDS polyacrilamide gel. Autoradiography was used to determine phosphorylation activity.
# VEGFR = target: T5, VEGFR (Homo sapiens, UniProt P17948); assay: In vitro VEGFR autophosphorylation kinase assay; format: biochemical; conditions: peptide at 50 μM; FIG. 2B
# T5 construct: purchased Calbiochem, San Diego, Calif
# Experimental: as §1, §2
# [1] = target: T6, p-JAK2 WT peptide (phosphorylated at 1007Y) (Homo sapiens, UniProt O60674); assay: Solid phase binding of biotinylated phosphorylated JAK2 WT peptide to immobilized Tkip; conditions: FIG. 4
# T6 construct: made in house; host or cells: chemical synthesis (Fmoc)
# Experimental: (§4) Binding assays: For ELISA binding assays Tkip and other peptides to be tested were bound to 96-well plates in 0.1 M carbonate binding buffer (pH 9.6) at a final concentration of 3 μg/well (50 μl). Wells were then washed three times with wash buffer containing 0.9% NaCl and 0.05% tween-20 in PBS and blocked with 2% gelatin and 0.05% tween-20 in PBS for 1 h at room temperature. Wells were then washed three times with wash buffer and incubated with various concentrations of biotinylated JAK2 WT peptide and biotinylated P-JAK2 WT peptide for 1 h at room temperature in blocking buffer. Following incubation, wells were washed five times with wash buffer to remove any unbound biotinylated peptides. Bound biotinylated peptides were detected by incubation with a 1:500 dilution of NEUTRAVIDIN biotin binding-protein conjugated with horseradish peroxidase (Molecular Probes, Eugene, Oreg.) in blocking buffer for 1 h at room temperature. Wells were then washed five times with wash buffer and developed with a solution of o-phenylenediamine (OPD) in stable peroxidase buffer (Pierce, Rockford, Ill.). The assay was stopped with the addition of 2 M H2SO4 (50 μl) to each well. Absorbance was measured using a 450 microplate reader (Bio-rad, Hercules, Calif.) at 490 nm. Control experiments were carried out as described above in the absence of immobilized peptides.
# [2] = tested on: experimental allergic encephalomyelitis; assay: Experimental allergic encephalomyelitis (EAE) in MBP-immunized NZW mice; format: in vivo
# Experimental: NZW mice were injected intraperitoneally with PBS or Tkip (63 μg/mouse) every other day starting the day of immunization with myelin basic protein (MBP) for induction of EAE. Mice were followed daily for signs of EAE, and mean severity of paralysis for each group was graded based on the following scale: 1, loss of tail tone, 2, hind leg weakness, 3, paraparesis, 4, paraplegia, 5, moribund, death. […] All mice in the control group had disease (disease incidence=4/4), while one mouse in the Tkip group had disease (disease incidence=1/5).
# NZW mice were immunized with myelin basic protein (MBP) (300 ug) emulsified in complete Freund's adjuvant for the induction of experimental allergic encephalomyelitis (EAE). Tkip peptide (63 μg/mouse) was administered to mice every other day starting the day of immunization. Phosphate buffered saline (PBS) was used as the vehicle of transfer and as the control agent for the treatment of the control group. Mice were followed daily for signs of EAE and mean severity of paralysis for each group was graded based on the scale presented in the legend of FIG. 9. […] Furthermore, the mean severity of disease for the control group (2.1) was twice as high as that of the Tkip group (0.8) at its peak. The time of onset of disease for the control group and Tkip-treated group was similar (24 days post immnunization). Thus, treatment of MBP-immunized mice with Tkip peptide protects them from the autoimmune disease, EAE.
# [3] = target: T7, JAK2 WT peptide (JAK2 autophosphorylation site 1001LPQDKEYYKVKEP) (Homo sapiens, UniProt O60674); assay: ELISA binding of biotinylated JAK2 WT peptide to solid-phase peptides
# T7 construct: made in house; host or cells: chemical synthesis (Fmoc)
# Experimental: as §4
# T4 sequence (O60674 whole entry): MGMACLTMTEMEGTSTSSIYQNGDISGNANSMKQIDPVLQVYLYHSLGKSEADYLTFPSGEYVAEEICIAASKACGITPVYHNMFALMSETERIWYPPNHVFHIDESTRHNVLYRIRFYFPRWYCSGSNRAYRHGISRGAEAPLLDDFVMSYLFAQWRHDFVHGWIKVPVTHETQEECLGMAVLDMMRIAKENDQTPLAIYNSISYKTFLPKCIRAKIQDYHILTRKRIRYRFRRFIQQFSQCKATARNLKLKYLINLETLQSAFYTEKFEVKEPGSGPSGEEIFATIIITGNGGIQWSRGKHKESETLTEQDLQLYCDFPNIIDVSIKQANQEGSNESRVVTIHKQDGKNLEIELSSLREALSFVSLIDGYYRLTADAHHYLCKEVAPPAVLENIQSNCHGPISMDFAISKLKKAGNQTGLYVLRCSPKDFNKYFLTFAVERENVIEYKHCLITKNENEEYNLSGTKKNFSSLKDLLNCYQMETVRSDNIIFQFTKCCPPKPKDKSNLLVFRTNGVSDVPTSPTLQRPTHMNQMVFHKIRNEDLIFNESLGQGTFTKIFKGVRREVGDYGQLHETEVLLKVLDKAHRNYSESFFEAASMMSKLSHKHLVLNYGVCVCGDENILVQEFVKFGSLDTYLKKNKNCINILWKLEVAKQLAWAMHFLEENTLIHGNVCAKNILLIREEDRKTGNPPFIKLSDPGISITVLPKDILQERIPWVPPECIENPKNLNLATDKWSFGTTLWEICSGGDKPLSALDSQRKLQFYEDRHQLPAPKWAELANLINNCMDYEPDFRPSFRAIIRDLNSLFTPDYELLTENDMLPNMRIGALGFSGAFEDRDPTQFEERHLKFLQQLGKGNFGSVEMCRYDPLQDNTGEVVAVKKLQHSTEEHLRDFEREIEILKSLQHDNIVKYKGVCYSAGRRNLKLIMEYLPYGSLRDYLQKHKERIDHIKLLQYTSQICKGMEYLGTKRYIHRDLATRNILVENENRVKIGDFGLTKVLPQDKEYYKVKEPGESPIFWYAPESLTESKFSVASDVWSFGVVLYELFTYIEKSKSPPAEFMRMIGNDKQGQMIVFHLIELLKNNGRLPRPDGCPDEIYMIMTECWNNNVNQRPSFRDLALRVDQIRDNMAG
# T2 sequence (O60674 whole entry): as above
# T5 sequence (P17948 27-1338): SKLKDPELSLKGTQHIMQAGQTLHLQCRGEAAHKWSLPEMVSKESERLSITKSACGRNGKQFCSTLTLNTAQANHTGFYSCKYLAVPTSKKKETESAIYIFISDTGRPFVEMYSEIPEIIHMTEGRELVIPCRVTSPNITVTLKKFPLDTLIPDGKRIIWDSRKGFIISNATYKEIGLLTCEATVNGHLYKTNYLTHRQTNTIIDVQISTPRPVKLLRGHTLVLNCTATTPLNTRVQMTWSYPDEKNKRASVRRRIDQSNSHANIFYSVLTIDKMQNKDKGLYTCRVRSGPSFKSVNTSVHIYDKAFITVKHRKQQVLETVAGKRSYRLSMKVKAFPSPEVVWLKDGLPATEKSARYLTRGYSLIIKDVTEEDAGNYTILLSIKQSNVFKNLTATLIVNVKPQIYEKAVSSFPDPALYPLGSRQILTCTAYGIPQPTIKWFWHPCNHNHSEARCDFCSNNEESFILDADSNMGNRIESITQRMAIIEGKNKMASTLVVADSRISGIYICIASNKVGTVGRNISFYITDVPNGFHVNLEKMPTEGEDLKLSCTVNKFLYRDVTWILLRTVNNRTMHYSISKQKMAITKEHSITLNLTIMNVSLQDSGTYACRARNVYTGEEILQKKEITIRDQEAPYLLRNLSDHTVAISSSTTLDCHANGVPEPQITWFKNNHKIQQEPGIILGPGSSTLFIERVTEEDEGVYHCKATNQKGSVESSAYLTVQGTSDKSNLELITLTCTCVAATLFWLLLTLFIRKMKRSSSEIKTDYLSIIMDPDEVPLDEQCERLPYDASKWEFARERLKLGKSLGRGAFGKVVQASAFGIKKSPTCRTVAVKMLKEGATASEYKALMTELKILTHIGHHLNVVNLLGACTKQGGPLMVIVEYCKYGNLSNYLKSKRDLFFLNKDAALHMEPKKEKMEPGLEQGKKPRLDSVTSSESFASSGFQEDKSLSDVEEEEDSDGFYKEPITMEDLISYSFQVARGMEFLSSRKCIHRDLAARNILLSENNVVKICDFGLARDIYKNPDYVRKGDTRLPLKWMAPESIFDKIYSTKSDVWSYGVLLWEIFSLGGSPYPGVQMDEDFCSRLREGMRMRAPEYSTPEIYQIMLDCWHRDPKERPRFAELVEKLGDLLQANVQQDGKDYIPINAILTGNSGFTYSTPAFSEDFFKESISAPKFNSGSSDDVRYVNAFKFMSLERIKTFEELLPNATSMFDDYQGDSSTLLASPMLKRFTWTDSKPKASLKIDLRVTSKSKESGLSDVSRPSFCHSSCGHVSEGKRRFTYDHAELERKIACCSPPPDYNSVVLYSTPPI
sequence,measurement,setting,value
WLVFFVIFYFFR (amino acid sequence of a peptide that can be used according to the present invention) [Tkip],inhibition of EGFR autophosphorylation,EGFR,completely inhibited
same,inhibition of 32P incorporation into JAK2/IFNGR-1,JAK2/IFNGR-1,greater than 95%
same,inhibition of c-src phosphorylation of a protein substrate,c-src,failed to inhibit
same,inhibition of JAK2 autophosphorylation,recombinant human JAK2,completely inhibited; also recorded: also inhibited
same,inhibition of JAK2 phosphorylation of IFNGR-1,recombinant human JAK2,completely inhibited; also recorded: also inhibited
same,inhibition of VEGFR autophosphorylation,VEGFR,did not inhibit
same,"fifty percent endpoint concentration, fold lower for p-JAK2 WT binding versus unphosphorylated JAK2 WT binding",[1],approximately 9 fold
same,binding of Tkip to p-JAK2 WT,[1]; immobilized Tkip,binding was most efficient to p-JAK2 WT
same,time of onset of disease,[2]; 63 μg/mouse every other day,24 days post immnunization
same,mean severity of disease (paralysis scale 1-5),"[2]; 63 μg/mouse every other day, at its peak",0.8
same,incidence of disease (EAE),[2]; 63 μg/mouse intraperitoneally every other day from day of immunization,1/5
same,binding of biotinylated JAK2 WT peptide to solid-phase peptide,"[3]; FIG. 1A, ELISA, peptides coated on 96-well plates",bound only to Tkip peptide in a dose-dependent manner
same,binding of Tkip to unphosphorylated JAK2 WT,"[3]; FIG. 4, immobilized Tkip",bound both JAK2 WT and p-JAK2 WT in a dose-dependent manner
